Changes are numbered by the printed parent chain. Numbers in names are those of the source.
Assays:
[1] = target: wild-type Cre recombinase (P1 Bacteriophage) (UniProt P06956); assay: cell-based or functional assay
[2] = target: Cre-A3 (P1 Bacteriophage) (UniProt P06956); assay: cell-based or functional assay
[3] = target: Cre-B3 (P1 Bacteriophage) (UniProt P06956); assay: cell-based or functional assay
[4] = target: Cre-B2 (P1 Bacteriophage) (UniProt P06956); assay: cell-based or functional assay
[5] = target: Cre-B2-C2#4
[6] = target: T1, Cre-B2
T1 chain: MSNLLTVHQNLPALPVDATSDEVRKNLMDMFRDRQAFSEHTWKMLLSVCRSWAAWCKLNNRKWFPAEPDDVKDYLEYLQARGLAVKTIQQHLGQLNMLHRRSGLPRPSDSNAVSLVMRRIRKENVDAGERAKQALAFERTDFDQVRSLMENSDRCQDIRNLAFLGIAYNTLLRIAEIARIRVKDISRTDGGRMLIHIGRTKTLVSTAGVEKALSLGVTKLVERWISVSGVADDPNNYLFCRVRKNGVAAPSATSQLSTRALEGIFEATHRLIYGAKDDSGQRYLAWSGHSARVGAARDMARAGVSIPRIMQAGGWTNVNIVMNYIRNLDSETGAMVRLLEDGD

[7] = target: Cre-B1 (P1 Bacteriophage) (UniProt P06956); assay: cell-based or functional assay
[8] = target: Cre-A2 (P1 Bacteriophage) (UniProt P06956); assay: cell-based or functional assay
[9] = target: T2, Cre-E123LE-R337E
T2 chain: T1 chain with D69E, K72R, E76L, E123L, R308E, R337E

wild-type Cre recombinase (from UniProt P06956 1-343) (enzyme)
RFP positive cells of 7000 sorted, Ai14 mouse ES reporter cells, promoter hbb + cmv, replicate 1 [1]: 3910 cells
RFP positive cells of 7000 sorted, Ai14 mouse ES reporter cells, promoter hbb + cmv, replicate 2 [1]: 4220 cells
RFP positive cells of 7000 sorted, Ai14 mouse ES reporter cells, promoter hbb + cmv, replicate 3 [1]: 4310 cells
RFP positive cells of 7000 sorted, Ai14 mouse ES reporter cells, promoter hbb + sp1, replicate 1 [1]: 3820 cells
RFP positive cells of 7000 sorted, Ai14 mouse ES reporter cells, promoter hbb + sp1, replicate 2 [1]: 3800 cells
RFP positive cells of 7000 sorted, Ai14 mouse ES reporter cells, promoter hbb + sp1, replicate 3 [1]: 4020 cells
RFP positive cells of 7000 sorted, Ai14 mouse ES reporter cells, promoter hbb, replicate 1 [1]: 372 cells
RFP positive cells of 7000 sorted, Ai14 mouse ES reporter cells, promoter hbb, replicate 2 [1]: 391 cells
RFP positive cells of 7000 sorted, Ai14 mouse ES reporter cells, promoter hbb, replicate 3 [1]: 408 cells

B1: Cre-A3 (protein)
chain: MSNLLTVHQNLPALPVDATSDEVRRNLMRMFELRRAFSEHTWKMLLSVCRSWAAWCKLNNRKWFPAEPEDVRDYLLYLQARGLAVKTIQQHLGQLNMLHRRSGLPRPSDSNAVSLVMRRIRKLNVDAGERAKQALAFERTDFDQVRSLMENSDRCQDIRNLAFLGIAYNTLLRIAEIARIRVKDISRTDGGRMLIHIGRTKTLVSTAGVEKALSLGVTKLVERWISVSGVADDPNNYLFCRVRKNGVAAPSATSQLSTRALEGIFEATHRLIYGAKDDSGQRYLAWSGHSARVGAARDMARAGVSIPEIMQAGGWTNVNIVMNYIRNLDSETGAMVELLEDGD
RFP positive cells of 7000 sorted, Ai14 mouse ES reporter cells, promoter hbb + cmv, replicate 1 [2]: 0 cells
RFP positive cells of 7000 sorted, Ai14 mouse ES reporter cells, promoter hbb + cmv, replicate 2 [2]: 1 cells
RFP positive cells of 7000 sorted, Ai14 mouse ES reporter cells, promoter hbb + cmv, replicate 3 [2]: 1 cells
RFP positive cells of 7000 sorted, Ai14 mouse ES reporter cells, promoter hbb + sp1, replicate 1 [2]: 1 cells
RFP positive cells of 7000 sorted, Ai14 mouse ES reporter cells, promoter hbb + sp1, replicate 2 [2]: 0 cells
RFP positive cells of 7000 sorted, Ai14 mouse ES reporter cells, promoter hbb + sp1, replicate 3 [2]: 0 cells
RFP positive cells of 7000 sorted, Ai14 mouse ES reporter cells, promoter hbb, replicate 1 [2]: 0 cells
RFP positive cells of 7000 sorted, Ai14 mouse ES reporter cells, promoter hbb, replicate 2 [2]: 0 cells
RFP positive cells of 7000 sorted, Ai14 mouse ES reporter cells, promoter hbb, replicate 3 [2]: 1 cells
RFP positive cells of 7000 sorted, Ai14 mouse ES reporter cells, promoter hbb + cmv, replicate 1 [3]: 1 cells
RFP positive cells of 7000 sorted, Ai14 mouse ES reporter cells, promoter hbb + cmv, replicate 2 [3]: 2 cells
RFP positive cells of 7000 sorted, Ai14 mouse ES reporter cells, promoter hbb + cmv, replicate 3 [3]: 1 cells
RFP positive cells of 7000 sorted, Ai14 mouse ES reporter cells, promoter hbb + sp1, replicate 1 [3]: 1 cells
RFP positive cells of 7000 sorted, Ai14 mouse ES reporter cells, promoter hbb + sp1, replicate 2 [3]: 1 cells
RFP positive cells of 7000 sorted, Ai14 mouse ES reporter cells, promoter hbb + sp1, replicate 3 [3]: 2 cells
RFP positive cells of 7000 sorted, Ai14 mouse ES reporter cells, promoter hbb, replicate 1 [3]: 0 cells
RFP positive cells of 7000 sorted, Ai14 mouse ES reporter cells, promoter hbb, replicate 2 [3]: 1 cells
RFP positive cells of 7000 sorted, Ai14 mouse ES reporter cells, promoter hbb, replicate 3 [3]: 0 cells
RFP positive cells of 7000 sorted, Ai14 mouse ES reporter cells, promoter hbb + cmv, replicate 1 [4]: 1600 cells
RFP positive cells of 7000 sorted, Ai14 mouse ES reporter cells, promoter hbb + cmv, replicate 2 [4]: 1650 cells
RFP positive cells of 7000 sorted, Ai14 mouse ES reporter cells, promoter hbb + cmv, replicate 3 [4]: 1700 cells
RFP positive cells of 7000 sorted, Ai14 mouse ES reporter cells, promoter hbb + sp1, replicate 1 [4]: 1500 cells
RFP positive cells of 7000 sorted, Ai14 mouse ES reporter cells, promoter hbb + sp1, replicate 2 [4]: 1530 cells
RFP positive cells of 7000 sorted, Ai14 mouse ES reporter cells, promoter hbb + sp1, replicate 3 [4]: 1610 cells
RFP positive cells of 7000 sorted, Ai14 mouse ES reporter cells, promoter hbb, replicate 1 [4]: 256 cells
RFP positive cells of 7000 sorted, Ai14 mouse ES reporter cells, promoter hbb, replicate 2 [4]: 233 cells
RFP positive cells of 7000 sorted, Ai14 mouse ES reporter cells, promoter hbb, replicate 3 [4]: 284 cells
recombinase activity in mouse ES reporter cells, relative to wild type Cre (% of wild type Cre activity) [4]: 40
recombinase activity in vitro on six loxP/M7 hybrid substrates (gel) [5]: In vitro assays confirmed that the heterotetrameric Cre is more specific in recombining different arrangement of loxP/M7 sites
recombinase activity in vitro (loxP excision, gel) [6]: preserving activity in the Cre-A3+Cre-B2 heterotetramer
recombinase activity in vitro (loxP excision, gel): This mutation successfully disrupted formation of Cre-A2 homotetramers

B2: Cre mutant with only the round 2 mutation R337E (protein)
chain: T1 chain with D69E, K72R, E76L, R308E, R337E
recombinase activity in vitro: The salt-bridge swap from round 2 alone yields two Cre mutants with reduced but clear activity (data not shown)

B3: Cre-B1 (protein)
chain: T1 chain with R308E
RFP positive cells of 7000 sorted, Ai14 mouse ES reporter cells, promoter hbb + cmv, replicate 1 [7]: 1240 cells
RFP positive cells of 7000 sorted, Ai14 mouse ES reporter cells, promoter hbb + cmv, replicate 2 [7]: 1260 cells
RFP positive cells of 7000 sorted, Ai14 mouse ES reporter cells, promoter hbb + cmv, replicate 3 [7]: 1120 cells
RFP positive cells of 7000 sorted, Ai14 mouse ES reporter cells, promoter hbb + sp1, replicate 1 [7]: 1150 cells
RFP positive cells of 7000 sorted, Ai14 mouse ES reporter cells, promoter hbb + sp1, replicate 2 [7]: 1080 cells
RFP positive cells of 7000 sorted, Ai14 mouse ES reporter cells, promoter hbb + sp1, replicate 3 [7]: 1200 cells
RFP positive cells of 7000 sorted, Ai14 mouse ES reporter cells, promoter hbb, replicate 1 [7]: 97 cells
RFP positive cells of 7000 sorted, Ai14 mouse ES reporter cells, promoter hbb, replicate 2 [7]: 102 cells
RFP positive cells of 7000 sorted, Ai14 mouse ES reporter cells, promoter hbb, replicate 3 [7]: 85 cells
recombinase activity in vitro (loxP excision, gel): All Cre-B mutants are inactive in isolation.

B4: Cre-A2 (protein)
chain: B1 chain with L123E
RFP positive cells of 7000 sorted, Ai14 mouse ES reporter cells, promoter hbb + cmv, replicate 1 [8]: 1130 cells
RFP positive cells of 7000 sorted, Ai14 mouse ES reporter cells, promoter hbb + cmv, replicate 2 [8]: 1120 cells
RFP positive cells of 7000 sorted, Ai14 mouse ES reporter cells, promoter hbb + cmv, replicate 3 [8]: 1050 cells
RFP positive cells of 7000 sorted, Ai14 mouse ES reporter cells, promoter hbb + sp1, replicate 1 [8]: 1050 cells
RFP positive cells of 7000 sorted, Ai14 mouse ES reporter cells, promoter hbb + sp1, replicate 2 [8]: 1000 cells
RFP positive cells of 7000 sorted, Ai14 mouse ES reporter cells, promoter hbb + sp1, replicate 3 [8]: 1120 cells
RFP positive cells of 7000 sorted, Ai14 mouse ES reporter cells, promoter hbb, replicate 1 [8]: 47 cells
RFP positive cells of 7000 sorted, Ai14 mouse ES reporter cells, promoter hbb, replicate 2 [8]: 52 cells
RFP positive cells of 7000 sorted, Ai14 mouse ES reporter cells, promoter hbb, replicate 3 [8]: 41 cells
RFP positive cells of 7000 sorted, Ai14 mouse ES reporter cells, promoter hbb + cmv, replicate 1 [4]: 3180 cells
RFP positive cells of 7000 sorted, Ai14 mouse ES reporter cells, promoter hbb + cmv, replicate 2 [4]: 3410 cells
RFP positive cells of 7000 sorted, Ai14 mouse ES reporter cells, promoter hbb + cmv, replicate 3 [4]: 3700 cells
RFP positive cells of 7000 sorted, Ai14 mouse ES reporter cells, promoter hbb + sp1, replicate 1 [4]: 3220 cells
RFP positive cells of 7000 sorted, Ai14 mouse ES reporter cells, promoter hbb + sp1, replicate 2 [4]: 3340 cells
RFP positive cells of 7000 sorted, Ai14 mouse ES reporter cells, promoter hbb + sp1, replicate 3 [4]: 3590 cells
RFP positive cells of 7000 sorted, Ai14 mouse ES reporter cells, promoter hbb, replicate 1 [4]: 573 cells
RFP positive cells of 7000 sorted, Ai14 mouse ES reporter cells, promoter hbb, replicate 2 [4]: 528 cells
RFP positive cells of 7000 sorted, Ai14 mouse ES reporter cells, promoter hbb, replicate 3 [4]: 607 cells
recombinase activity in vitro (loxP excision, gel) [6]: the Cre-A2+Cre-B2 combination exhibited strong recombinase activity
recombinase activity in vitro (loxP excision, gel): while its activity is reduced relative to Cre-A1, the Cre-A2 monomer was still capable of forming a functional homotetrameric complex

B5: Cre mutant with only the round 2 mutation E308R (protein)
chain: T1 chain with D69E, K72R, E76L
recombinase activity in vitro: The salt-bridge swap from round 2 alone yields two Cre mutants with reduced but clear activity (data not shown)

B6: Cre-E123L-E308R (protein)
chain: T1 chain with D69E, K72R, E76L, E123L
recombinase activity in vitro (loxP excision, gel) [9]: In vitro assays indicated that these mutants do not form an obligate heterotetrameric pair

B7: Cre-B2 (protein)
chain: T1 chain
RFP positive cells of 7000 sorted, Ai14 mouse ES reporter cells, promoter hbb + cmv, replicate 1 [4]: 2 cells
RFP positive cells of 7000 sorted, Ai14 mouse ES reporter cells, promoter hbb + cmv, replicate 2 [4]: 2 cells
RFP positive cells of 7000 sorted, Ai14 mouse ES reporter cells, promoter hbb + cmv, replicate 3 [4]: 4 cells
RFP positive cells of 7000 sorted, Ai14 mouse ES reporter cells, promoter hbb + sp1, replicate 1 [4]: 2 cells
RFP positive cells of 7000 sorted, Ai14 mouse ES reporter cells, promoter hbb + sp1, replicate 2 [4]: 1 cells
RFP positive cells of 7000 sorted, Ai14 mouse ES reporter cells, promoter hbb + sp1, replicate 3 [4]: 3 cells
RFP positive cells of 7000 sorted, Ai14 mouse ES reporter cells, promoter hbb, replicate 1 [4]: 0 cells
RFP positive cells of 7000 sorted, Ai14 mouse ES reporter cells, promoter hbb, replicate 2 [4]: 0 cells
RFP positive cells of 7000 sorted, Ai14 mouse ES reporter cells, promoter hbb, replicate 3 [4]: 1 cells
recombinase activity in vitro (loxP excision, gel): All Cre-B mutants are inactive in isolation.

Source: patent US20170058297A1
